# Source: US20150344570A1 (published 2015)
# T1: FcγRIIb extracellular domain with C-terminal His tag (human, UniProt P31994 43-217)
# T1 construct: extracellular domain; also called FcgRIIb; 2b
# T1 sequence (looked up): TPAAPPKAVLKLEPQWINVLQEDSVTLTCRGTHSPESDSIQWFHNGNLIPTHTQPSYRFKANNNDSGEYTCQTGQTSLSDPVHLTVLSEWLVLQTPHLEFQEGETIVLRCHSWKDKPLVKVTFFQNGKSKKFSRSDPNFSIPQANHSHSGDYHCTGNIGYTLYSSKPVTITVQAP
# Target: T1, FcγRIIb extracellular domain with …
# Test: SPR (Biacore), relative binding
row,Binder,He/Con_2b
1,"GpH7-A5/GpH7-B3 variant T335_18N/GpL16-k0 (antibody, human IgG1, kappa, also called He Ab T335_18N) heavy 1: not shown heavy 2: not shown light: DIVMTQSPLSLPVTPGEPASISCQASESLVHSNRNTYLHWYLQKPGQSPQLLIYKVSNRFSGVPDRFSGSGSGTDFTLKISRVEAEDVGVYYCSQNTHVPPTFGQGTKVEIERTVAAPSVFIFPPSDEQLKSGTASVVCLLNNFYPREAKVQWKVDNALQSGNSQESVTEQDSKDSTYSLSSTLTLSKADYEKHKVYACEVTHQGLSSPVTKSFNRGEC",102 % of HeCon Ab GpH7-A5/GpH7-B3/GpL16-k0
2,"GpH7-A5/GpH7-B3 variant S337_16H/GpL16-k0 (antibody, human IgG1, kappa, also called He Ab S337_16H) heavy 1: not shown heavy 2: not shown light: DIVMTQSPLSLPVTPGEPASISCQASESLVHSNRNTYLHWYLQKPGQSPQLLIYKVSNRFSGVPDRFSGSGSGTDFTLKISRVEAEDVGVYYCSQNTHVPPTFGQGTKVEIERTVAAPSVFIFPPSDEQLKSGTASVVCLLNNFYPREAKVQWKVDNALQSGNSQESVTEQDSKDSTYSLSSTLTLSKADYEKHKVYACEVTHQGLSSPVTKSFNRGEC",105 % of HeCon Ab GpH7-A5/GpH7-B3/GpL16-k0
3,"GpH7-A5/GpH7-B3 variant T335_10E/GpL16-k0 (antibody, human IgG1, kappa, also called He Ab T335_10E) heavy 1: not shown heavy 2: not shown light: DIVMTQSPLSLPVTPGEPASISCQASESLVHSNRNTYLHWYLQKPGQSPQLLIYKVSNRFSGVPDRFSGSGSGTDFTLKISRVEAEDVGVYYCSQNTHVPPTFGQGTKVEIERTVAAPSVFIFPPSDEQLKSGTASVVCLLNNFYPREAKVQWKVDNALQSGNSQESVTEQDSKDSTYSLSSTLTLSKADYEKHKVYACEVTHQGLSSPVTKSFNRGEC",108 % of HeCon Ab GpH7-A5/GpH7-B3/GpL16-k0
4,"GpH7-A5/GpH7-B3 variant V266_06M/GpL16-k0 (antibody, human IgG1, kappa, also called He Ab V266_06M) heavy 1: not shown heavy 2: not shown light: DIVMTQSPLSLPVTPGEPASISCQASESLVHSNRNTYLHWYLQKPGQSPQLLIYKVSNRFSGVPDRFSGSGSGTDFTLKISRVEAEDVGVYYCSQNTHVPPTFGQGTKVEIERTVAAPSVFIFPPSDEQLKSGTASVVCLLNNFYPREAKVQWKVDNALQSGNSQESVTEQDSKDSTYSLSSTLTLSKADYEKHKVYACEVTHQGLSSPVTKSFNRGEC",251 % of HeCon Ab GpH7-A5/GpH7-B3/GpL16-k0
5,"GpH7-A5/GpH7-B3 variant T335_19Q/GpL16-k0 (antibody, human IgG1, kappa, also called He Ab T335_19Q) heavy 1: not shown heavy 2: not shown light: DIVMTQSPLSLPVTPGEPASISCQASESLVHSNRNTYLHWYLQKPGQSPQLLIYKVSNRFSGVPDRFSGSGSGTDFTLKISRVEAEDVGVYYCSQNTHVPPTFGQGTKVEIERTVAAPSVFIFPPSDEQLKSGTASVVCLLNNFYPREAKVQWKVDNALQSGNSQESVTEQDSKDSTYSLSSTLTLSKADYEKHKVYACEVTHQGLSSPVTKSFNRGEC",100 % of HeCon Ab GpH7-A5/GpH7-B3/GpL16-k0
6,"GpH7-A5/GpH7-B3 variant T335_16H/GpL16-k0 (antibody, human IgG1, kappa, also called He Ab T335_16H) heavy 1: not shown heavy 2: not shown light: DIVMTQSPLSLPVTPGEPASISCQASESLVHSNRNTYLHWYLQKPGQSPQLLIYKVSNRFSGVPDRFSGSGSGTDFTLKISRVEAEDVGVYYCSQNTHVPPTFGQGTKVEIERTVAAPSVFIFPPSDEQLKSGTASVVCLLNNFYPREAKVQWKVDNALQSGNSQESVTEQDSKDSTYSLSSTLTLSKADYEKHKVYACEVTHQGLSSPVTKSFNRGEC",102 % of HeCon Ab GpH7-A5/GpH7-B3/GpL16-k0
7,"GpH7-A5/GpH7-B3 variant S337_08L/GpL16-k0 (antibody, human IgG1, kappa, also called He Ab S337_08L) heavy 1: not shown heavy 2: not shown light: DIVMTQSPLSLPVTPGEPASISCQASESLVHSNRNTYLHWYLQKPGQSPQLLIYKVSNRFSGVPDRFSGSGSGTDFTLKISRVEAEDVGVYYCSQNTHVPPTFGQGTKVEIERTVAAPSVFIFPPSDEQLKSGTASVVCLLNNFYPREAKVQWKVDNALQSGNSQESVTEQDSKDSTYSLSSTLTLSKADYEKHKVYACEVTHQGLSSPVTKSFNRGEC",100 % of HeCon Ab GpH7-A5/GpH7-B3/GpL16-k0

# Second part, the binder after the results:
row,He/Con_2b,Binder
1,112 % of HeCon Ab GpH7-A5/GpH7-B3/GpL16-k0,"GpH7-A5/GpH7-B3 variant S324_06M/GpL16-k0 (antibody, human IgG1, kappa, also called He Ab S324_06M) heavy 1: not shown heavy 2: not shown light: DIVMTQSPLSLPVTPGEPASISCQASESLVHSNRNTYLHWYLQKPGQSPQLLIYKVSNRFSGVPDRFSGSGSGTDFTLKISRVEAEDVGVYYCSQNTHVPPTFGQGTKVEIERTVAAPSVFIFPPSDEQLKSGTASVVCLLNNFYPREAKVQWKVDNALQSGNSQESVTEQDSKDSTYSLSSTLTLSKADYEKHKVYACEVTHQGLSSPVTKSFNRGEC"
2,108 % of HeCon Ab GpH7-A5/GpH7-B3/GpL16-k0,"GpH7-A5/GpH7-B3 variant T335_15Y/GpL16-k0 (antibody, human IgG1, kappa, also called He Ab T335_15Y) heavy 1: not shown heavy 2: not shown light: DIVMTQSPLSLPVTPGEPASISCQASESLVHSNRNTYLHWYLQKPGQSPQLLIYKVSNRFSGVPDRFSGSGSGTDFTLKISRVEAEDVGVYYCSQNTHVPPTFGQGTKVEIERTVAAPSVFIFPPSDEQLKSGTASVVCLLNNFYPREAKVQWKVDNALQSGNSQESVTEQDSKDSTYSLSSTLTLSKADYEKHKVYACEVTHQGLSSPVTKSFNRGEC"
3,109 % of HeCon Ab GpH7-A5/GpH7-B3/GpL16-k0,"GpH7-A5/GpH7-B3 variant S337_20W/GpL16-k0 (antibody, human IgG1, kappa, also called He Ab S337_20W) heavy 1: not shown heavy 2: not shown light: DIVMTQSPLSLPVTPGEPASISCQASESLVHSNRNTYLHWYLQKPGQSPQLLIYKVSNRFSGVPDRFSGSGSGTDFTLKISRVEAEDVGVYYCSQNTHVPPTFGQGTKVEIERTVAAPSVFIFPPSDEQLKSGTASVVCLLNNFYPREAKVQWKVDNALQSGNSQESVTEQDSKDSTYSLSSTLTLSKADYEKHKVYACEVTHQGLSSPVTKSFNRGEC"
4,102 % of HeCon Ab GpH7-A5/GpH7-B3/GpL16-k0,"GpH7-A5/GpH7-B3 variant T335_13S/GpL16-k0 (antibody, human IgG1, kappa, also called He Ab T335_13S) heavy 1: not shown heavy 2: not shown light: DIVMTQSPLSLPVTPGEPASISCQASESLVHSNRNTYLHWYLQKPGQSPQLLIYKVSNRFSGVPDRFSGSGSGTDFTLKISRVEAEDVGVYYCSQNTHVPPTFGQGTKVEIERTVAAPSVFIFPPSDEQLKSGTASVVCLLNNFYPREAKVQWKVDNALQSGNSQESVTEQDSKDSTYSLSSTLTLSKADYEKHKVYACEVTHQGLSSPVTKSFNRGEC"
5,106 % of HeCon Ab GpH7-A5/GpH7-B3/GpL16-k0,"GpH7-A5/GpH7-B3 variant T335_07I/GpL16-k0 (antibody, human IgG1, kappa, also called He Ab T335_07I) heavy 1: not shown heavy 2: not shown light: DIVMTQSPLSLPVTPGEPASISCQASESLVHSNRNTYLHWYLQKPGQSPQLLIYKVSNRFSGVPDRFSGSGSGTDFTLKISRVEAEDVGVYYCSQNTHVPPTFGQGTKVEIERTVAAPSVFIFPPSDEQLKSGTASVVCLLNNFYPREAKVQWKVDNALQSGNSQESVTEQDSKDSTYSLSSTLTLSKADYEKHKVYACEVTHQGLSSPVTKSFNRGEC"
6,104 % of HeCon Ab GpH7-A5/GpH7-B3/GpL16-k0,"GpH7-A5/GpH7-B3 variant S337_07I/GpL16-k0 (antibody, human IgG1, kappa, also called He Ab S337_07I) heavy 1: not shown heavy 2: not shown light: DIVMTQSPLSLPVTPGEPASISCQASESLVHSNRNTYLHWYLQKPGQSPQLLIYKVSNRFSGVPDRFSGSGSGTDFTLKISRVEAEDVGVYYCSQNTHVPPTFGQGTKVEIERTVAAPSVFIFPPSDEQLKSGTASVVCLLNNFYPREAKVQWKVDNALQSGNSQESVTEQDSKDSTYSLSSTLTLSKADYEKHKVYACEVTHQGLSSPVTKSFNRGEC"
7,100 % of HeCon Ab GpH7-A5/GpH7-B3/GpL16-k0,"GpH7-A5/GpH7-B3 variant S337_15Y/GpL16-k0 (antibody, human IgG1, kappa, also called He Ab S337_15Y) heavy 1: not shown heavy 2: not shown light: DIVMTQSPLSLPVTPGEPASISCQASESLVHSNRNTYLHWYLQKPGQSPQLLIYKVSNRFSGVPDRFSGSGSGTDFTLKISRVEAEDVGVYYCSQNTHVPPTFGQGTKVEIERTVAAPSVFIFPPSDEQLKSGTASVVCLLNNFYPREAKVQWKVDNALQSGNSQESVTEQDSKDSTYSLSSTLTLSKADYEKHKVYACEVTHQGLSSPVTKSFNRGEC"
8,103 % of HeCon Ab GpH7-A5/GpH7-B3/GpL16-k0,"GpH7-A5/GpH7-B3 variant S337_18N/GpL16-k0 (antibody, human IgG1, kappa, also called He Ab S337_18N) heavy 1: not shown heavy 2: not shown light: DIVMTQSPLSLPVTPGEPASISCQASESLVHSNRNTYLHWYLQKPGQSPQLLIYKVSNRFSGVPDRFSGSGSGTDFTLKISRVEAEDVGVYYCSQNTHVPPTFGQGTKVEIERTVAAPSVFIFPPSDEQLKSGTASVVCLLNNFYPREAKVQWKVDNALQSGNSQESVTEQDSKDSTYSLSSTLTLSKADYEKHKVYACEVTHQGLSSPVTKSFNRGEC"
9,104 % of HeCon Ab GpH7-A5/GpH7-B3/GpL16-k0,"GpH7-A5/GpH7-B3 variant T335_20W/GpL16-k0 (antibody, human IgG1, kappa, also called He Ab T335_20W) heavy 1: not shown heavy 2: not shown light: DIVMTQSPLSLPVTPGEPASISCQASESLVHSNRNTYLHWYLQKPGQSPQLLIYKVSNRFSGVPDRFSGSGSGTDFTLKISRVEAEDVGVYYCSQNTHVPPTFGQGTKVEIERTVAAPSVFIFPPSDEQLKSGTASVVCLLNNFYPREAKVQWKVDNALQSGNSQESVTEQDSKDSTYSLSSTLTLSKADYEKHKVYACEVTHQGLSSPVTKSFNRGEC"
